The test deals with 161P2F10B variant 1 (human 161P2F10B), on the cell surface (human) (UniProt O14638). Put plainly: FACS titration on KU-812 cells, one site binding fit.

In patent publication US20090022663A1 one finds Kd data, which are given here for one molecule.

B1: H16-1.92.1.1 (antibody, part only; not given: light chain, V domains shown, part only)
VH: EVLLVESGPGLVKPSETLSLTCTVSGGSISSSSYFWGWIRQPPGKGLEWIGSIYYSGNTYYNPSLKSRVTISVDTSKNRFSLKLSSVTAADTAVYCCASATTVTTAFDIWGQGTMVTVSSASTKGPSVFPLAPSS
For B1, the Kd amounted to 4.73 nM.
